Experimental findings from patent publication US20220411847A1, “GLUCOSE/GALACTOSE BIOSENSORS AND METHODS OF USING SAME” (Duke University, priority 2015, published 2022) are described below.

The nature of data set [1]: Thermal denaturation followed by fluorescence ratio, two-state fit. It counts as physicochemical. To be noted: thermal stability of the 183C acrylodan conjugate mutant. The procedure: (§1) The titration series were mixed with GGBP183C⋅acrylodan or BD_SM4⋅acrylodan conjugates in 384-well microtiter plates. The temperature dependence of the titrations was measured in a real-time PCR machine (Roche LightCycler 480) by determining the ratio of fluorescence emission intensities at 488, 510, and 580 nm (excitation at 440 nm) as a function of temperature (290-370K). Temperatures were advanced in 1K steps. At each temperature data was collected for at 1-second intervals for 60 seconds at which point the signal had relaxed to a steady value associated with the new temperature. Collection times were adjusted to minimize photobleaching (which was not detectable under these experimental conditions). Data reduction software was developed to convert these observations into time-independent datasets that record fluorescence as a function of temperature for each well and associate wells with their concentration of titrant and additive. Management tools were developed to maintain a database of titrations and their analyses.
Fits of these equation systems to experimental observations such as shown in FIG. 5 require good initial estimates of the parameters. These can then be refined using multi-dimensional conjugate gradient methods. To obtain local fits for protein thermostability in the absence of ligand we solve
This gives excellent fits (FIG. 7).

A short description of data set [2]: Glucose titration at room temperature on Nanodrop3300 fluorimeter. It counts as binding. Here is the method:
(§2) In addition to the Roche LightCycler, which has a limited choice of emission wavelengths, data for selected mutants also was measured at room temperature on a Nanodrop3300 (Thermo Scientific) fluorimeter, which records full emission spectra. Emission intensities at a particular wavelength were extracted by integration of the spectral emission intensities over a 20-nm interval centered on that wavelength.
(§3) Signals S (either single-wavelength emission intensities, LT, or ratios of intensities at two wavelengths, Rig) were fit to ligand-binding isotherms:
(§4) where [L] is the ligand concentration and Kd the dissociation constant corresponding to ^appKd or ^trueKd for fits to R12 (weighted by the relative contributions of ^satβ at the two different wavelengths) and Iλ respectively. For a given isothermal titration, values for ^appKd and ^true Kd were obtained using a non-linear fitting algorithm in which these two parameters were simultaneously fit to the three experimental binding isotherms using equations 29 and 30, with the two monochromatic isotherms sharing the same ^trueKd value. Three separate pairs of ^apoβ and ^satβ were fit in this procedure.

Data set [3] can be described thus: Galactose titration at room temperature on Nanodrop3300 fluorimeter. The class given is binding. The following applies: ^e noisy data. Here is the method:
as §2, §3, §4

Data set [4] is described as follows: Fluorescence emission response to ligand binding. On the set-up: key to Response Intensity^c: +, increases in response to ligand; —: decreases; 0, no change in the glucose titration; key to Response Shape^b: m, monochromatic; d, dichromatic (i.e. spectral shape changes); 0, no change in the glucose titration. To be noted: glucose titration; Nanodrop3300; room temperature. Here is the method:
as §1, §2

The nature of data set [5]: Isothermal glucose titrations from fluorescent landscapes (Roche LightCycler). The class given is binding. Here is the method: as §1
The response of acrylodan to glucose binding was separated from the effects of thermal denaturation by extracting binding isotherms within the temperature range where the apo-protein remains >99% folded (T<320 K; FIG. 7). Within this temperature range, binding isotherms were constructed by extracting fluorescence values across different wells, each containing different glucose concentrations, at a given temperature, and fit individually with high accuracy to isotherms (FIG. 8):
using linear baselines which vary individually in accordance with the tilt of the S, S1, and S2 baseplanes that correspond the saturated glucose complex. The individually fit Kd(T) values were converted into ΔGb(T) and fit to the Gibbs-Helmholtz equation 9 (FIG. 9).
Analysis of mutant affinity values: Isothermal glucose titrations were extracted from the fluorescent landscape or emission datasets as described above. Monochromatic emission intensities Iλ. (these intensities correspond to a bandpass intensity recorded with a physical filter in the case of the Roche LightCycler) were fit to
where ^apoIλ2 ^apoIλ2 and ^satIλ2^satIλ2 are the emission intensities of the monochromatic signal at wavelength λ2λ2 of the ligand-free and ligand-bound protein, respectively. Equation 28 illustrates that the ^appKd ^appKd values obtained by fits of 25 to ratiometric signals are wavelength dependent. To obtain wavelength-independent values needed for comparison of mutant proteins, it is necessary to simultaneously fit ^appKd ^appKd to the ratiometric signal and ^trueKd ^trueKd to the two monochromatic signals. For a given isothermal titration, values for ^appKd ^appKd and ^trueKd ^trueKd were obtained using a non-linear fitting algorithm in which these two parameters were simultaneously fit to the three experimental binding isotherms using equations 23 and 27, with the two monochromatic isotherms sharing the same ^trueKd ^trueKd value. Three separate pairs of linear ^apoβ ^apoβ and ^satβ ^satβ baselines were fit in this procedure. TABLES 1-5 record the ^trueKd ^trueKd values at 25° C., obtained by analysis of Roche LightCycler data in 488 nm and 510 nm channels. The uncertainty of the fit (‘error’) was obtained using a boot-strapping technique in which 37% of the data was replicated. In all cases, no binding was recorded if one of ^appKd ^appKd or ^trueKd ^trueKd exceeded 200 mM. The glucose constant of GGBP183 C-acrylodan is 4.21±0.08 mM at 25° C.

Assay in data set [6]: as above
To be noted: 37° C.; mutations in GGBP183C⋅acrylodan; read-out: glucose Kd values at 37° C. It counts as binding.

[7] abbreviates: apparent, ratiometric signal at the listed wavelength pair, read-out: Affinities (mM)^d Glucose aPPKa.
[8] abbreviates: from monochromatic signals, read-out: Affinities (mM)^d Glucose trueKa.
Where [9] appears, read: apparent, ratiometric signal at the listed wavelength pair, read-out: Affinities (mM)^d Galactose ^appKd.
Where [10] appears, read: from monochromatic signals, read-out: Affinities (mM)^d Galactose ^trueKd.
Where [11] appears, read: 25° C., read-out: glucose affinities.

Take “A155F: GGBP 183C acrylodan conjugate with mutation A155F”: the Tm/K in data set [1] was 321 K. Also, the Kd came out at 0.06 mM in data set [2] (setting [7]), 0.06 mM in data set [2] (setting [8]), 0.82 mM in data set [3] (setting [9]) and 0.93 mM in data set [3] (setting [10]). The “Response Intensity^c” value in data set [4] is listed as “—”. Further, the “Response Shape^b” value in data set [4] is listed as “m”.
On to “A155K: GGBP 183C acrylodan conjugate with mutation A155K”, for which the Tm/K in data set [1] was found to be 318 K.
The same measure, in the same setting: as for “A155L: GGBP 183C acrylodan conjugate with mutation A155L”, the figure is 320 K.
For “A155M: GGBP 183C acrylodan conjugate with mutation A155M”, the Tm/K in data set [1] is given as 321 K. Besides, the Kd in data set [2] (setting [7]) was found to be 0.05 mM; in data set [2] (setting [8]), 0.05 mM; in data set [3] (setting [9]) it was 6.7 mM; in data set [3] (setting [10]), 8.7 mM. In addition, the “Response Intensity^c” value in data set [4] is “—”. Besides, the “Response Shape^b” value in data set [4] was “m”.
For the substance “A155Q: GGBP 183C acrylodan conjugate with mutation A155Q”, the Tm/K in data set [1] was found to be 321 K.
For the substance “A155S: GGBP 183C acrylodan conjugate with mutation A155S”, in data set [1], the Tm/K is listed as 321 K. The Kd in data set [2] (setting [7]) is 0.31 mM. Besides, in data set [2] (setting [8]), the Kd is 0.35 mM. In addition, in data set [4], the “Response Intensity^c” value is on record as “—” and the “Response Shape^b” value is recorded as “m?”.
“A155W: GGBP 183C acrylodan conjugate with mutation A155W”: the Tm/K in data set [1] came out at 322 K.
Turning to “A155Y: GGBP 183C acrylodan conjugate with mutation A155Y”, in data set [1], the Tm/K was determined as 321 K.
For “D14E: GGBP 183C acrylodan conjugate with mutation D14E”, the Tm/K in data set [1] was found to be 318 K.
The same measure, in the same setting: as for “D14H: GGBP 183C acrylodan conjugate with mutation D14H”, the figure is 317 K.
On the same count and under the same terms, to “D14L: GGBP 183C acrylodan conjugate with mutation D14L” belongs 311 K; to “D14N: GGBP 183C acrylodan conjugate with mutation D14N”, 317 K.
Same read-out and setting: to “D14T: GGBP 183C acrylodan conjugate with mutation D14T” belongs 316 K; to “D154A: GGBP 183C acrylodan conjugate with mutation D154A”, 320 K.
For “D154N: GGBP 183C acrylodan conjugate with mutation D154N”, in data set [1], the Tm/K is given as 318 K.
With “D236A: GGBP 183C acrylodan conjugate with mutation D236A”, in data set [1], the Tm/K is listed as 320 K.
On the same count and under the same terms, as for “D236N: GGBP 183C acrylodan conjugate with mutation D236N”, the figure is 320 K; as for “F16A: GGBP 183C acrylodan conjugate with mutation F16A”, 319 K; as for “F16L: GGBP 183C acrylodan conjugate with mutation F16L”, 321 K.
Regarding “GGBP16C-acrylodan: F16C mutant of E. coli GGBP, acrylodan conjugate”, the Kd in data set [5] (setting [11]) was about 0.2 mM.
Still for that read-out and setting: to “GGBP16C-badan: F16C mutant of E. coli GGBP, badan conjugate” belongs about 0.2 mM.
Regarding “H152A: GGBP 183C acrylodan conjugate with mutation H152A”, in data set [1], the Tm/K stood at 316 K.
As for “H152F: GGBP 183C acrylodan conjugate with mutation H152F”, the Kd is 21.1 ± 0.9 mM in data set [5] (trueKd at 25° C., 183C acrylodan conjugates, LightCycler 488 nm and 510 nm channels, ± = bootstrap uncertainty of fit, read-out: Kd^298K(glucose)/mM); 15 mM in data set [2] (setting [7]); 16 mM in data set [2] (setting [8]); about 17000 µM in data set [6]. Besides, the Tm/K in data set [1] is on record as 321 K. Also, in data set [4], the “Response Intensity^c” value was “—”. For the same substance, the “Response Shape^b” value in data set [4] is listed as “d”.
Consider “H152K: GGBP 183C acrylodan conjugate with mutation H152K”, for which the Tm/K in data set [1] is reported as 319 K.
Regarding “K92A: GGBP 183C acrylodan conjugate with mutation K92A”, the Tm/K in data set [1] is 323 K.
Consider “M182W: GGBP 183C acrylodan conjugate with mutation M182W”, for which the Tm/K in data set [1] worked out at 322 K.
Same read-out and setting: as for “N91A: GGBP 183C acrylodan conjugate with mutation N91A”, the figure is 326 K.
On the same count and under the same terms, as for “N211A: GGBP 183C acrylodan conjugate with mutation N211A”, the figure is 317 K; as for “N211F: GGBP 183C acrylodan conjugate with mutation N211F”, 323 K; as for “N211H: GGBP 183C acrylodan conjugate with mutation N211H”, 320 K.
On the same count and under the same terms, to “N211K: GGBP 183C acrylodan conjugate with mutation N211K” belongs 315 K.
In the case of “N211M: GGBP 183C acrylodan conjugate with mutation N211M”, the Tm/K in data set [1] came to 317 K.
Take “N211Q: GGBP 183C acrylodan conjugate with mutation N211Q”: the Tm/K in data set [1] amounted to 317 K. Besides, the values for the Kd in data set [2] (setting [7]) and in data set [2] (setting [8]) were 29 mM and 22 mM, respectively. Further, the “Response Intensity^c” value in data set [4] was “—”. For the same substance, the “Response Shape^b” value in data set [4] is on record as “d”.
In the case of “N211S: GGBP 183C acrylodan conjugate with mutation N211S”, the Tm/K in data set [1] is 319 K.
On the same count and under the same terms, to “N211W: GGBP 183C acrylodan conjugate with mutation N211W” belongs 328 K; to “N211Y: GGBP 183C acrylodan conjugate with mutation N211Y”, 316 K.
Still for that read-out and setting: as for “N256A: GGBP 183C acrylodan conjugate with mutation N256A”, the figure is 324 K; as for “N256D: GGBP 183C acrylodan conjugate with mutation N256D”, 321 K.
The same measure, in the same setting: to “R158A: GGBP 183C acrylodan conjugate with mutation R158A” belongs 322 K; to “R158K: GGBP 183C acrylodan conjugate with mutation R158K”, 318 K; to “Y10A: GGBP 183C acrylodan conjugate with mutation Y10A”, 326 K.
